Results published in publication PMC5314774 (Nucleic Acids Research, 2016).

B1: C14ORF142 (bacterial, GST removed) (natural protein)
chain: MELLGEYVGQEGKPQKLRVSCEAPGDGDPFQGLLSGVAQMKDMVTELFDPLVQGEVQHRVAAAPDEDLDGDDEDDAEDENNIDNRTNFDGPSAKRPKTPS
B2: C14ORF142 (insect cells, polycistronic KEOPS vector) (natural protein)
chain: B1 chain

Tests used:
[1] = target: T1, LAGE3 (bacterial, 6xHIS-GST removed) (human, UniProt Q14657 1-143); assay: SEC
T1 sequence: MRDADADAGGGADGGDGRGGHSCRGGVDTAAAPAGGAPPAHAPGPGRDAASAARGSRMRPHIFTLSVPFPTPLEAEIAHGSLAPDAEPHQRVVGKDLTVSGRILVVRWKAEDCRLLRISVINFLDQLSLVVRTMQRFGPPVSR

[2] = target: 4-subunit KEOPS complex (OSGEP, PRPK, TPRKB and LAGE3) (human, UniProt Q9NPF4;Q96S44;Q9Y3C4;Q14657); assay: SEC-MALS

Row | Binder | stoichiometry N [1] | stoichiometry N [2]
1 | B1 | 1 | 
2 | B2 |  | 1
